Results: patent US20210388087A1 (Chugai, published 2021)

T1: Human CD3eg linker (human)
T1 construct: Single chain: CD3 epsilon and gamma subunits joined by a 29-mer linker, Flag-tag at the C-terminus; also called recombinant human CD3
T1 chain: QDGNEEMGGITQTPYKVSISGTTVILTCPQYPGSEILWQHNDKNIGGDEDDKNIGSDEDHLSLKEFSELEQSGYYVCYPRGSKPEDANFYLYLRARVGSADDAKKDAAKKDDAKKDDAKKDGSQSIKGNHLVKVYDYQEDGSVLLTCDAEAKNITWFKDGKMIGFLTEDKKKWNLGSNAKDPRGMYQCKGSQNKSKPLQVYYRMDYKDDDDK

T2: cyno CD137 (cynomolgus monkey, UniProt Q07011 24-186 (human entry), limits assumed)
T2 construct: also called cynomolgus monkey CD137
T2 chain: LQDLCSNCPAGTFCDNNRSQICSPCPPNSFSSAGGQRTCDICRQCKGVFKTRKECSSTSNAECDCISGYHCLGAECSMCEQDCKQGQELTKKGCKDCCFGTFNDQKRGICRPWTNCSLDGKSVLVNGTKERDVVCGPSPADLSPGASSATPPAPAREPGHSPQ


How the values were obtained:
[1] = target: T1, Human CD3eg linker; assay: affinity relative to template H183/L072, single-mutation scan
[2] = target: T2, cyno CD137; assay: SPR Biacore T200, IgG captured on protein A, 25 C;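 further: antigens diluted in ACES running buffer at pH 7.4 were flowed over antibodies held on a CM3 chip bearing amine-coupled protein A, with buffer alone serving as blank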
[3] = target: human CD3 ed (human, UniProt P07766 23-126; P04234 22-105, limits assumed); assay: SPR Biacore T200, IgG captured on protein A, 25 C;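 further: antigens diluted in ACES running buffer at pH 7.4 were flowed over antibodies held on a CM3 chip bearing amine-coupled protein A, with buffer alone serving as blank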
[4] = target: human CD137 (human, UniProt Q07011 24-186); assay: SPR Biacore T200, IgG captured on protein A, 25 C;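 further: antigens diluted in ACES running buffer at pH 7.4 were flowed over antibodies held on a CM3 chip bearing amine-coupled protein A, with buffer alone serving as blank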
[5] = target: T3, biotin-labeled human CD137 fused to human IgG1 Fc fragment (human, biotin-labeled); assay: competitive ELISA on biotin-human CD137-Fc; free CD3e vs free Fc
T3 construct: also called human CD137-Fc; biotin-human CD137-Fc; not shown: human IgG1 Fc fragment

[6] = target: T3, biotin-labeled human CD137 fused to …; assay: competitive ELISA on biotin-human CD137-Fc; competitor free CD3e 62.5 pmol
[7] = target: T3, biotin-labeled human CD137 fused to …; assay: competitive ELISA on biotin-human CD137-Fc; free Fc 62.5 pmol (control)

Row | Binder | fold change of affinity for CD3 [1] [fold] | Kd [2] [µM] | koff [2] [s⁻¹] | Kd [3] [µM] | koff [3] [s⁻¹] | kon [3] [M⁻¹ s⁻¹] | Kd [4] [µM] | koff [4] [s⁻¹] | kon [4] [M⁻¹ s⁻¹] | Signal decrease [5] [%] | ELISA signal [6] | ELISA signal [7] | kon [2] [M⁻¹ s⁻¹]
1 | H183/L072 with P56Y (Kabat) in VL dBBDu072L (antibody, name in Kabat numbering, V domains shown, Single-mutation variant of H183L072) VH: QVQLVESGGGLVQPGRSLRLSCAASGFTFSNAWMHWVRQAPGKGLEWVAQIKDKGNAYAAYYAPSVKGRFTISRDDSKNSIYLQMNSLKTEDTAVYYCHYVHYASASTVLPAFGVDAWGQGTTVTVSS VL: DIVMTQSPLSLPVTPGEPASISCQASQELVHMNRNTYLHWYQQKPGQAPRLLIYKVSNRFYGVPDRFSGSGSGTDFTLKISRVEAEDVGVYYCAQGTSVPFTFGQGTKLEIK | 2.7 |  |  |  |  |  |  |  |  |  |  |  | 
2 | dBBDu186/L098 (antibody, V domains shown, IgG format; constant regions not specified) VH: QVQLVESGGGLVQPGRSLRLSCAASGFTFSNAWMHWVRQAPGKGLEWVAQIKDRSNQYATYYAPSVKGRFTISRDDSKNSIYLQMNSLKTEDTAVYYCHYVHYAQASTVLPAFGVDAWGQGTTVTVSS VL: DIVMTQSPLSLPVTPGEPASISCAASEELVHINRYIFLHWYQQKPGQAPRLLIYKVSNRFIGVPDRFSGSGSGTDFTLKISRVEAEDVGVYYCAQGSQVPFTFGQGTKLEIK |  | 134 | 0.00119 | 1.88 | 0.0209 | 11100 | 2.31 | 0.000534 | 231 | 86.2 | 15900 | 115000 | 
3 | dBBDu189/L119 (antibody, V domains shown, IgG format; constant regions not specified) VH: QVQLVESGGGLVQPGRSLRLSCAASGFTFSNAWMHWVRQAPGKGLEWIAQIKDRSNQYATYYAPSVKGRFTISRDDSKNSIYLQMNSLKTEDTAVYYCHYVHYAQASSLLPSFGVDAWGQGTTVTVSS VL: DIVMTQSPLSLPVTPGEPASISCTASQELVHINRFIFLHWYQQKPGQAPRLLIYKVSNRFIGVPDRFSGSGSGTDFTLKISRVEAEDVGVYYCAQGSQVPFTFGQGTKLEIK |  | 35.7 | 0.00122 | 2.06 | 0.0258 | 12500 | 2.71 | 0.000402 | 148 | 76.9 | 20400 | 88100 | 
4 | dBBDu186/L106 (antibody, V domains shown, IgG format; constant regions not specified) VH: QVQLVESGGGLVQPGRSLRLSCAASGFTFSNAWMHWVRQAPGKGLEWVAQIKDRSNQYATYYAPSVKGRFTISRDDSKNSIYLQMNSLKTEDTAVYYCHYVHYAQASTVLPAFGVDAWGQGTTVTVSS VL: DIVMTQSPLSLPVTPGEPASISCSTSEELLHINRFIFLHWYQQKPGQAPRLLIYKVANRFMGVPDRFSGSGSGTDFTLKISRVEAEDVGVYYCAQGSQVPFTFGQGTKLEIK |  | 61.3 | 0.00126 | 3.09 | 0.0318 | 10300 | 3.44 | 0.000447 | 130 | 68.7 | 3090 | 9860 | 
5 | dBBDu186/L100 (antibody, V domains shown, IgG format; constant regions not specified) VH: QVQLVESGGGLVQPGRSLRLSCAASGFTFSNAWMHWVRQAPGKGLEWVAQIKDRSNQYATYYAPSVKGRFTISRDDSKNSIYLQMNSLKTEDTAVYYCHYVHYAQASTVLPAFGVDAWGQGTTVTVSS VL: DIVMTQSPLSLPVTPGEPASISCSASEELVHINRYIFLHWYQQKPGQAPRLLIYKVYNRFMGVPDRFSGSGSGTDFTLKISRVEAEDVGVYYCGQGSSVPFTFGQGTKLEIK |  | 70.4 | 0.00208 | 3.36 | 0.0546 | 16200 | 1.91 | 0.000746 | 391 | 13 | 88900 | 102000 | 
6 | dBBDu167/L094 (antibody, V domains shown, IgG format; constant regions not specified; also called dBBDu_167 dBBDu.L094) VH: QVQLVESGGGLVQPGRSLRLSCAASGFTFSNAWMHWVRQAPGKGLEWVAQIKDKGNLYAAYYAPSVKGRFTISRDDSKNSIYLQMNSLKTEDTAVYYCHYVHYASAGGGLPGFGVDAWGQGTTVTVSS VL: DIVMTQSPLSLPVTPGEPASISCYASEELLHINRHIYLHWYQQKPGQAPRLLIYKVYNRFNGVPDRFSGSGSGTDFTLKISRVEAEDVGVYYCAQGSSVPFTFGQGTKLEIK |  | 6.92 | 0.0748 | 0.349 | 0.021 | 60200 | 8.43 | 0.0102 | 1210 | 96.9 | 4370 | 141000 | 10800
7 | H183/L072 with R54Y (Kabat) in VL dBBDu072L (antibody, name in Kabat numbering, V domains shown, Single-mutation variant of H183L072) VH: QVQLVESGGGLVQPGRSLRLSCAASGFTFSNAWMHWVRQAPGKGLEWVAQIKDKGNAYAAYYAPSVKGRFTISRDDSKNSIYLQMNSLKTEDTAVYYCHYVHYASASTVLPAFGVDAWGQGTTVTVSS VL: DIVMTQSPLSLPVTPGEPASISCQASQELVHMNRNTYLHWYQQKPGQAPRLLIYKVSNYFPGVPDRFSGSGSGTDFTLKISRVEAEDVGVYYCAQGTSVPFTFGQGTKLEIK | 1.6 |  |  |  |  |  |  |  |  |  |  |  | 

Second part, the binder after the results:

Row | fold change of affinity for CD3 [1] [fold] | Kd [2] [µM] | koff [2] [s⁻¹] | Kd [3] [µM] | koff [3] [s⁻¹] | kon [3] [M⁻¹ s⁻¹] | Kd [4] [µM] | koff [4] [s⁻¹] | kon [4] [M⁻¹ s⁻¹] | Signal decrease [5] [%] | ELISA signal [6] | ELISA signal [7] | kon [2] [M⁻¹ s⁻¹] | Binder
8 | 0.2 |  |  |  |  |  |  |  |  |  |  |  |  | H183/L072 with T97Y (Kabat) in VL dBBDu072L (antibody, name in Kabat numbering, V domains shown, Single-mutation variant of H183L072) VH: QVQLVESGGGLVQPGRSLRLSCAASGFTFSNAWMHWVRQAPGKGLEWVAQIKDKGNAYAAYYAPSVKGRFTISRDDSKNSIYLQMNSLKTEDTAVYYCHYVHYASASTVLPAFGVDAWGQGTTVTVSS VL: DIVMTQSPLSLPVTPGEPASISCQASQELVHMNRNTYLHWYQQKPGQAPRLLIYKVSNRFPGVPDRFSGSGSGTDFTLKISRVEAEDVGVYYCAQGTSVPFYFGQGTKLEIK
9 | 0.2 |  |  |  |  |  |  |  |  |  |  |  |  | H183/L072 with V94Y (Kabat) in VL dBBDu072L (antibody, name in Kabat numbering, V domains shown, Single-mutation variant of H183L072) VH: QVQLVESGGGLVQPGRSLRLSCAASGFTFSNAWMHWVRQAPGKGLEWVAQIKDKGNAYAAYYAPSVKGRFTISRDDSKNSIYLQMNSLKTEDTAVYYCHYVHYASASTVLPAFGVDAWGQGTTVTVSS VL: DIVMTQSPLSLPVTPGEPASISCQASQELVHMNRNTYLHWYQQKPGQAPRLLIYKVSNRFPGVPDRFSGSGSGTDFTLKISRVEAEDVGVYYCAQGTSYPFTFGQGTKLEIK
10 |  | 16.1 | 0.00361 | 3.01 | 0.0408 | 13600 | 2.41 | 0.00081 | 335 | 39.2 | 50800 | 83600 | 225 | dBBDu186/L108 (antibody, V domains shown, IgG format; constant regions not specified) VH: QVQLVESGGGLVQPGRSLRLSCAASGFTFSNAWMHWVRQAPGKGLEWVAQIKDRSNQYATYYAPSVKGRFTISRDDSKNSIYLQMNSLKTEDTAVYYCHYVHYAQASTVLPAFGVDAWGQGTTVTVSS VL: DIVMTQSPLSLPVTPGEPASISCRTSEELLHINRFTFLHWYQQKPGQAPRLLIYKVSNRFMGVPDRFSGSGSGTDFTLKISRVEAEDVGVYYCAQGSAVPFTFGQGTKLEIK
11 | 1.5 |  |  |  |  |  |  |  |  |  |  |  |  | H183/L072 with S52Y (Kabat) in VL dBBDu072L (antibody, name in Kabat numbering, V domains shown, Single-mutation variant of H183L072) VH: QVQLVESGGGLVQPGRSLRLSCAASGFTFSNAWMHWVRQAPGKGLEWVAQIKDKGNAYAAYYAPSVKGRFTISRDDSKNSIYLQMNSLKTEDTAVYYCHYVHYASASTVLPAFGVDAWGQGTTVTVSS VL: DIVMTQSPLSLPVTPGEPASISCQASQELVHMNRNTYLHWYQQKPGQAPRLLIYKVYNRFPGVPDRFSGSGSGTDFTLKISRVEAEDVGVYYCAQGTSVPFTFGQGTKLEIK
12 |  | 3.06 | 0.00247 | 2.57 | 0.0281 | 10900 | 0.513 | 0.000688 | 1340 | 87 | 9750 | 75100 | 807 | dBBDu189/L126 (antibody, V domains shown, IgG format; constant regions not specified) VH: QVQLVESGGGLVQPGRSLRLSCAASGFTFSNAWMHWVRQAPGKGLEWIAQIKDRSNQYATYYAPSVKGRFTISRDDSKNSIYLQMNSLKTEDTAVYYCHYVHYAQASSLLPSFGVDAWGQGTTVTVSS VL: DIVMTQSPLSLPVTPGEPASISCRTSEELLHINRYIFLHWYQQKPGQAPRLLIYKVQNRFSGVPDRFSGSGSGTDFTLKISRVEAEDVGVYYCAQGSAVPFTFGQGTKLEIK
13 | 0.7 |  |  |  |  |  |  |  |  |  |  |  |  | H183/L072 with S93Y (Kabat) in VL dBBDu072L (antibody, name in Kabat numbering, V domains shown, Single-mutation variant of H183L072) VH: QVQLVESGGGLVQPGRSLRLSCAASGFTFSNAWMHWVRQAPGKGLEWVAQIKDKGNAYAAYYAPSVKGRFTISRDDSKNSIYLQMNSLKTEDTAVYYCHYVHYASASTVLPAFGVDAWGQGTTVTVSS VL: DIVMTQSPLSLPVTPGEPASISCQASQELVHMNRNTYLHWYQQKPGQAPRLLIYKVSNRFPGVPDRFSGSGSGTDFTLKISRVEAEDVGVYYCAQGTYVPFTFGQGTKLEIK
